The values that follow come from patent publication US20060009520A1, “Retinoid-based methods for altering macrophage cholesterol” (priority 2004, published 2006).

The subject of data set [1] is apoCIII. The following applies: transcriptional level; cited from earlier work.
Data set [2] has as its system ABCA1-mediated cholesterol efflux from mouse peritoneal macrophages. Nature of the data set: Cholesterol efflux to apoA-I from cholesterol-loaded macrophages. To be noted: 1 and 5 μM ATRA.
In data set [3] the target is T1, RARγ/RXRα heterodimer (Homo sapiens, UniProt P13631;P19793 P13631:1-454,P19793:1-462). Nature of the data set: EMSA; supershift with anti-RXRα and anti-RARγ; competed by 30-fold cold wild-type DR4. To be noted: tags: TNT wheat germ; pCMX-hRARγ, pCMX-hRXRα; label: 32P. From the text: (§1) RARs and LXRα and RXRα proteins were in vitro translated by using the TNT-coupled wheat germ extract systems (Promega). Double-strand oligonucleotides corresponding to the wild-type ABCA1 DR4 element 5′-[…]-3′ and the mutated sequence 5′-[…]-3′ were used, and electrophoresis mobility shift assays (EMSAs) were done with ³²P-labeled probes as described previously (6). For competition experiments, a 30-fold molar excess of cold unlabeled competitor DNA relative to labeled DNA was used. […] The oligonucleotides 5′-[…]-3′ and 5′-[…]-3′ were, respectively, used in EMSA analysis of DR4 elements a and b of the murine SREBP-1c promoter.
(§2) To further assess the possibility of a direct interaction between RARγ and the human ABCA1 promoter, a gel shift assay by using oligonucleotides consisting of the DR4 element was carried out. […] It was also determined whether RARα and RARβ could bind the ABCA1 DR4 element.
(In general: Mobility shift assays separate free from complexed probe on a gel.)

For data set [4], the target named is T2, RARβ/RXRα heterodimer (Homo sapiens, UniProt P10826;P19793 P10826:1-455,P19793:1-462). Briefly: EMSA; data not shown. To be noted: tags: TNT wheat germ; label: 32P.
Excerpt: as §1, §2

Data set [5] addresses T3, RARα/RXRα heterodimer (Homo sapiens, UniProt P10276;P19793 P10276:1-462,P19793:1-462). Briefly: EMSA; data not shown. The following applies: tags: TNT wheat germ; label: 32P.
Excerpt: as §1, §2

Data set [6] deals with T4, RARβ without RXRα (Homo sapiens, UniProt P10826 P10826:1-455).
T4 sequence: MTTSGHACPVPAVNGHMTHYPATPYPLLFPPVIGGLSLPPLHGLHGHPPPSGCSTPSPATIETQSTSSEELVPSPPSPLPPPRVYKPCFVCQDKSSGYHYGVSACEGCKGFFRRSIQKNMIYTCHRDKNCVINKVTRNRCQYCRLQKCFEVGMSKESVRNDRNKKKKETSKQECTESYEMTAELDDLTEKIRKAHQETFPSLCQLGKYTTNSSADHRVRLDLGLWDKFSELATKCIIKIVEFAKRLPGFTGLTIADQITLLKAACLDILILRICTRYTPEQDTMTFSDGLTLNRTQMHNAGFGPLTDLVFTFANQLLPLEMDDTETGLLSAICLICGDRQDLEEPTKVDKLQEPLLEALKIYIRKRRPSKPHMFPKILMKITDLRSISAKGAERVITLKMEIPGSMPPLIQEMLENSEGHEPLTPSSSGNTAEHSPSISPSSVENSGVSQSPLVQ
Nature of the data set: EMSA; complex only in presence of RXRα; data not shown. To be noted: tags: TNT wheat germ; label: 32P.
Excerpt: as §1, §2

Data set [7] deals with T5, RARγ without RXRα (Homo sapiens, UniProt P13631 P13631:1-454).
T5 sequence: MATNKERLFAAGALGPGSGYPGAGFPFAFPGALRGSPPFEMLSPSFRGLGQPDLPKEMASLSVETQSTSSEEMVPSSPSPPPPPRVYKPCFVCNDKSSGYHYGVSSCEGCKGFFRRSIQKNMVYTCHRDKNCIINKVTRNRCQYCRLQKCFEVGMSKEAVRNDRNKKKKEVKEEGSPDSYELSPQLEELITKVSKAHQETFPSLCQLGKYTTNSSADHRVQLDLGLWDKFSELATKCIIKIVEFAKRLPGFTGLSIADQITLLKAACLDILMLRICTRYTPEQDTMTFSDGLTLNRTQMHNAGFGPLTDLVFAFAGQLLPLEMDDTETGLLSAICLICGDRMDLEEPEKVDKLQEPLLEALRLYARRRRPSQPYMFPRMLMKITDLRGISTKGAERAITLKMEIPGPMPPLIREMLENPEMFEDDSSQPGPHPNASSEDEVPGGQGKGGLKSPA
Described as above. To be noted: tags: TNT wheat germ; label: 32P.
Excerpt: as §1, §2

In data set [8] the target is T6, RARα without RXRα (Homo sapiens, UniProt P10276 P10276:1-462).
T6 sequence: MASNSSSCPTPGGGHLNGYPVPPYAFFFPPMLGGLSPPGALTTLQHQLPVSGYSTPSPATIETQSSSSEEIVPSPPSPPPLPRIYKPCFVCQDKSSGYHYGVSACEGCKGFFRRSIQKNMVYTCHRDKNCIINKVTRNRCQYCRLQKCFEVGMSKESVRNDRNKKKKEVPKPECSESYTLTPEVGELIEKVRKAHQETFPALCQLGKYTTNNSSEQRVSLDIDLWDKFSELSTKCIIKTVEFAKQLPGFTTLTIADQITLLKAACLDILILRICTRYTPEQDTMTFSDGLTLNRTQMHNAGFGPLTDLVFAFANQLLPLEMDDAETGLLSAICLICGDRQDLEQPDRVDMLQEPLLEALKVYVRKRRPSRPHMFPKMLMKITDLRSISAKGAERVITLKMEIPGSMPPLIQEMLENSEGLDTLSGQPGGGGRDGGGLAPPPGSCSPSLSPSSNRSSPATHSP
The data set is described as above. To be noted: tags: TNT wheat germ; label: 32P.
Excerpt: as §1, §2

Data set [9] addresses T2, RARβ/RXRα heterodimer. Nature of the data set: EMSA; not shown. To be noted: tags: TNT wheat germ; label: 32P.
Excerpt: as §1

Data set [10] concerns the target T3, RARα/RXRα heterodimer. Nature of the data set: EMSA; not shown. The following applies: tags: TNT wheat germ; label: 32P.
Excerpt: as §1

The target in data set [11] is T1, RARγ/RXRα heterodimer. Nature of the data set: EMSA; neither bound nor competed with ABCA1 DR4. The following applies: tags: TNT wheat germ; pCMX-hRARγ, pCMX-hRXRα; label: 32P.
Experimental: In vitro-translated RXRα and RARγ were incubated with ³²P-labeled hABCA1 DR4 element. […] (Left panel) RXRα, RARγ, and LXRβ were separately produced by using an in vitro transcription-translation wheat germ extract systems and used in EMSAs with a ³²P-labeled mouse SREBP-1c DR4b element as a probe. […] (Right panel) EMSA analysis as described in panel D but with a ³²P-labeled human ABCA1 DR4 element as a probe.
The target in data set [12] is T1, RARγ/RXRα heterodimer. Nature of the data set: EMSA; neither bound nor competed with ABCA1 DR4. To be noted: tags: TNT wheat germ; pCMX-hRARγ, pCMX-hRXRα; label: 32P.
Excerpt: as §1
The source holds these as a separate data set.

T3 sequence (P19793 whole entry, one chain of several): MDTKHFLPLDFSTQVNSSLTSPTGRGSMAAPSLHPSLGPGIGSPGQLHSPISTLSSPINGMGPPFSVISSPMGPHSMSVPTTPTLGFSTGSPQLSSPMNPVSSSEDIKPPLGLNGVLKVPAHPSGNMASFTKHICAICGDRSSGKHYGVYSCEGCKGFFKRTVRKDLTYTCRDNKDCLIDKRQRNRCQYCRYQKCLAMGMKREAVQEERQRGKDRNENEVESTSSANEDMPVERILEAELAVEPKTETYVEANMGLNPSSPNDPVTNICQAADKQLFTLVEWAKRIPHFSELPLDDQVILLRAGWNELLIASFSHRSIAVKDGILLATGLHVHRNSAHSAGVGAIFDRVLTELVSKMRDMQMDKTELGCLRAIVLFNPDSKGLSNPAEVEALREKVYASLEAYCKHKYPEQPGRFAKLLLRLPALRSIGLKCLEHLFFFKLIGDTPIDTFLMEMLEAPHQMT
T1 sequence (P19793 whole entry, one chain of several): as above
T2 sequence (P19793 whole entry, one chain of several): as above

Take `CC1=C(/C=C/C(C)=C/C=C/C(C)=C\C(=O)O)C(C)(C)CCC1` [13-cRA, isotretinoin]: the “hepatic apoCIII expression” value in [1] is “increases hepatic apoCIII expression”.

As to `O=S(=O)(c1ccccc1)N(CC(F)(F)F)c1ccc(C(O)(C(F)(F)F)C(F)(F)F)cc1` [TO-901317], in data set [2], the “increase in cholesterol efflux to apoA-I, ATRA compared with TO-901317” value is on record as “comparable increase in cholesterol efflux to apoA-I”.

B1: ABCA1 DR4 element (dsDNA)
DNA 1: ACTGGGCTTTGACCGATAGTAACCTCTGCGCTCG
DNA 2: CGAGCGCAGAGGTTACTATCGGTCAAAGCCCAGT
For B1, the binding result in data set [3] is “binds”; in data set [4], “binds”; in data set [5], “binds”; in data set [6] it was “no binding”; in [7] it was “no binding”; in [8] it was “no binding”.

B2: SREBP-1c DR4 element b (dsDNA)
DNA 1: ACTGGGACGCCCGCTAGTAACCCCGGC
DNA 2: GCCGGGGTTACTAGCGGGCGTCCCAGT
As for B2, the binding result in [9], in data set [10] and in data set [11] was “no binding” each time.

B3: SREBP-1c DR4 element a (dsDNA)
DNA 1: ACTGCAGTGACCGCCAGTAACCCCAGC
DNA 2: GCTGGGGTTACTGGCGGTCACTGCAGT
On to B3, for which the binding result in data set [12], in [9] and in data set [10] was “no binding” throughout.
